The target in this test is glucagon receptor (GCGR) (mouse (endogenous in primary hepatocytes)) (UniProt Q61606). Kind of test: radioligand binding.
Chain of UniProt Q61606 (Q61606 27-485): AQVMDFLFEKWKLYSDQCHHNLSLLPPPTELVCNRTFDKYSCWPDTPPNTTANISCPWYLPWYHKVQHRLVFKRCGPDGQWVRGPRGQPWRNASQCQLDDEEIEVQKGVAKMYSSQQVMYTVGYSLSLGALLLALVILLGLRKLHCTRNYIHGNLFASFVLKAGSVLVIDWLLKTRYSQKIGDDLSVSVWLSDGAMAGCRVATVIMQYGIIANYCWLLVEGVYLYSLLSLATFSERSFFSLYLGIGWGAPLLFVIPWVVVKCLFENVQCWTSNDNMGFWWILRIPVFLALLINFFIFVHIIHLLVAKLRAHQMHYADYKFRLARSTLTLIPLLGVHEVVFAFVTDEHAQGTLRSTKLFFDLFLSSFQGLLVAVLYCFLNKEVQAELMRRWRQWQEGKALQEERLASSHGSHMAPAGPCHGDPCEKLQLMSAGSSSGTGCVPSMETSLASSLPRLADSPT

With glucagon (human) (peptide), the fold Kd, GNE LKO over GNE WT hepatocytes was determined as 10 fold.

The values above are taken from article PMC10583174.
